Series [1] has as its target T1, TcaR (Staphylococcus epidermidis, UniProt Q5HLN6 1-151). As to the kind of experiment: SPR; EMSA: 20 mM Tris-HCl pH 8.0, 150 mM KCl, 0.1 mM MgCl2, 0.05 mM EDTA, 12.5% glycerol, 0.1 mM DTT, 1 mg/ml BSA, room temperature (30 C for viral ssDNA); SPR: 50 mM Tris, 150 mM NaCl, pH 7.5, 25 C. To be noted: protein: recombinant; chain copies: 2; label: 5' biotin (SPR).
Series [2] concerns the target T1, TcaR. As to the kind of experiment: EMSA; similar to GC33; small and large complexes; EMSA: 20 mM Tris-HCl pH 8.0, 150 mM KCl, 0.1 mM MgCl2, 0.05 mM EDTA, 12.5% glycerol, 0.1 mM DTT, 1 mg/ml BSA, room temperature (30 C for viral ssDNA); SPR: 50 mM Tris, 150 mM NaCl, pH 7.5, 25 C. The settings on record: protein: recombinant; chain copies: 2. On the technique in general: In EMSA bound probe runs differently from free probe, usually more slowly.

Series [3] deals with T1, TcaR. The series can be described thus: EMSA; no significant interaction; 1 uM DNA; EMSA: 20 mM Tris-HCl pH 8.0, 150 mM KCl, 0.1 mM MgCl2, 0.05 mM EDTA, 12.5% glycerol, 0.1 mM DTT, 1 mg/ml BSA, room temperature (30 C for viral ssDNA); SPR: 50 mM Tris, 150 mM NaCl, pH 7.5, 25 C. The settings on record: protein: recombinant, chain copies: 2.
The next series concerns the target TcaR quadruple mutant (Staphylococcus epidermidis, UniProt Q5HLN6 1-151, R71A;K73A;R93A;K95A). The series can be described thus: EMSA; EMSA: 20 mM Tris-HCl pH 8.0, 150 mM KCl, 0.1 mM MgCl2, 0.05 mM EDTA, 12.5% glycerol, 0.1 mM DTT, 1 mg/ml BSA, room temperature (30 C for viral ssDNA); SPR: 50 mM Tris, 150 mM NaCl, pH 7.5, 25 C. The settings on record: protein: recombinant, chain copies: 2.

Series [4] deals with T1, TcaR. Described as above. The settings on record: protein: recombinant, chain copies: 2.
For series [5], the target named is T1, TcaR. The series can be described thus: EMSA; weaker than the single strands; EMSA: 20 mM Tris-HCl pH 8.0, 150 mM KCl, 0.1 mM MgCl2, 0.05 mM EDTA, 12.5% glycerol, 0.1 mM DTT, 1 mg/ml BSA, room temperature (30 C for viral ssDNA); SPR: 50 mM Tris, 150 mM NaCl, pH 7.5, 25 C. The settings on record: protein: recombinant; chain copies: 2.
In series [6] the target is T1, TcaR. As to the kind of experiment: SPR; shown as '-' in table; EMSA: 20 mM Tris-HCl pH 8.0, 150 mM KCl, 0.1 mM MgCl2, 0.05 mM EDTA, 12.5% glycerol, 0.1 mM DTT, 1 mg/ml BSA, room temperature (30 C for viral ssDNA); SPR: 50 mM Tris, 150 mM NaCl, pH 7.5, 25 C. To be noted: protein: recombinant; chain copies: 2. On the technique in general: SPR reads the build-up and loss of mass on a sensor chip optically.

The target of series [7] is T1, TcaR. As to the kind of experiment: EMSA; similar to GC33; small complex; EMSA: 20 mM Tris-HCl pH 8.0, 150 mM KCl, 0.1 mM MgCl2, 0.05 mM EDTA, 12.5% glycerol, 0.1 mM DTT, 1 mg/ml BSA, room temperature (30 C for viral ssDNA); SPR: 50 mM Tris, 150 mM NaCl, pH 7.5, 25 C. The settings on record: protein: recombinant; chain copies: 2.

As to GTTGGCGT (ssDNA) [GC8], in the series with TcaR [1], the binding result was “no binding”.

As to GCGTTGGCGTCGTGAGCGTTGGCGTCGTG (ssDNA) [GC29], in the series with TcaR [2], the binding result was “binds”.

With GATTATTTATTTTCAAG (ssDNA) [AT17], the binding result in the series with TcaR [3] was “no binding”.

Take GAGCGTTGGCGTCGTGAGCGTTGGCGTCGTGCG (ssDNA) [GC33]: the binding result was “no binding” with TcaR quadruple mutant (label: 5' biotin (SPR only)) and “binds” with TcaR [4] (label: 5' biotin (SPR only)).

In the case of GAGCGTTGGCGTCGTGC (ssDNA) [GC17], the binding result in the series with TcaR [3] (label: 5' biotin (SPR only)) is “no binding”.

B1: IcaR DNA1 (dsDNA)
DNA 1: TATTGCAAATTGAAATACTTTCGATTAGCATAT
DNA 2: ATATGCTAATCGAAAGTATTTCAATTTGCAATA
With B1, the binding result with TcaR quadruple mutant is given as “no binding”; with TcaR [5], “binds”.

Take TATTGCAAATTGAAATACTTTCGATTAGCATAT (ssDNA) [IcaR DNA1S]: in the series with TcaR [4], the binding result is recorded as “binds”.

ATATGCTAATCGAAAGTATTTCAATTTGCAATA (ssDNA) [IcaR DNA1A]: the binding result in the series with TcaR [4] is “binds”.

Take GATTATTTATTTTCAAATTATTTATTTTCAAGG (ssDNA) [AT33]: in the series with TcaR [4] (label: 5' biotin (SPR only)), the binding result is on record as “binds”.

B2: Control dsDNA (dsDNA)
DNA 1: CCCCCGGGTTCGATGGGCTCAAGGCGGGCATGAAGTACCCCGTACTTCATGCCCGCCTTGAGCCCATCGAACCC
DNA 2: GGGTTCGATGGGCTCAAGGCGGGCATGAAGTACGGGGTACTTCATGCCCGCCTTGAGCCCATCGAACCCGGGGG
Consider B2, for which the binding result with TcaR [6] is “no binding”.

Take GTTGGCGTCGTGAGCGTTGGCGTCG (ssDNA) [GC25]: in the series with TcaR [7], the binding result is reported as “binds”.

Values taken from paper PMC3448645, “Functional Studies of ssDNA Binding Ability of MarR Family Protein TcaR from Staphylococcus epidermidis”.
